The target of this test is T1, CDR1抗原ペプチド(RSSKSLLYSNGNTYLY).
T1 peptide: RSSKSLLYSNGNTYLY
Put plainly: cell-based or functional assay.

B1: i41SL1-2抗体の軽鎖(i41SL1-2-L) (other, not shown: a dimerising Fc or GST)
light: DIVMTQTQLTLTINIGQPASISCKSSQSLLDSDGKTYLNWLFQRPGQSPKRLIYLVSKLDSGVPDRFTGSGSGTDFTLKISRVEAEDLGVYYCWQGTHFPLTFGAGTKLELRRA
modifications: reduced with 0.2 M β-mercaptoethanol and alkylated with 0.3 M iodoacetamide (positions not stated)
Take B1: the “回転数(kcat)” value is ~0.005 ratio to trypsin.

B2: i41SL1-2抗体の重鎖(i41SL1-2-H) (other, not shown: a dimerising Fc or GST)
heavy: QVQLQHSGAELVRPGSSVKVSCKALGYTSTDYEIHWVKQTPVRGLEWIGAIHPGSDVIVYNQKFKGTATLTADKSSSTAYMELRSLTSEDSAVYYCTREGGSVDYVWGQGTLVTVSA
modifications: reduced with 0.2 M β-mercaptoethanol and alkylated with 0.3 M iodoacetamide (positions not stated)
In the case of B2, the “回転数(kcat)” value is ~0.005 ratio to trypsin and the “触媒効率(kcat/Km)” value was ~0.1 ratio to trypsin.

These data come from patent JP2010011840A (dated 2010).
